{
  "source": "the Human Domainome abundance scans (Beltran et al. 2025)",
  "parents": {"B1": {"name": "Segment polarity protein dishevelled homolog DVL-3, residues 2 to 81; numbered along this chain, Q92997 (parent)", "chain": "GETKIIYHLDGQETPYLVKLPLPAERVTLADFKGVLQRPSYKFFFKSMDDDFGVVKEEISDDNAKLPCFNGRVVSWLVSA"}},
  "note": "± gives the uncertainty stated by the source.",
  "data": [
    {"variants_of": "B1", "assay": "abundance fitness (aPCA) (normalised: wild type 0, dead -1); higher = more abundant; growth selection in yeast, the domain comes from the species named", "conditions": "Homo sapiens", "values": [
      {"variant": "GETKIIYHLDGQETPYLVKLPLPAKRVTLADFKGVLQRPSYKFFFKSMDDDFGVVKEEISDDNAKLPCFNGRVVSWLVSA", "abundance fitness": "-0.474 ± 0.11"},
      {"variant": "GETKIIYHLDGQETPYLVKLPLPAIRVTLADFKGVLQRPSYKFFFKSMDDDFGVVKEEISDDNAKLPCFNGRVVSWLVSA", "abundance fitness": "-0.658 ± 0.25"},
      {"variant": "GETKIIYHLDGQETPYLVKLPLPAMRVTLADFKGVLQRPSYKFFFKSMDDDFGVVKEEISDDNAKLPCFNGRVVSWLVSA", "abundance fitness": "-0.335 ± 0.22"},
      {"variant": "GETKIIYHLDGQETPYLVKLPLPARRVTLADFKGVLQRPSYKFFFKSMDDDFGVVKEEISDDNAKLPCFNGRVVSWLVSA", "abundance fitness": "-0.59 ± 0.072"},
      {"variant": "GETKIIYHLDGQETPYLVKLPLPASRVTLADFKGVLQRPSYKFFFKSMDDDFGVVKEEISDDNAKLPCFNGRVVSWLVSA", "abundance fitness": "-0.115 ± 0.064"},
      {"variant": "GETKIIYHLDGQETPYLVKLPLPAPRVTLADFKGVLQRPSYKFFFKSMDDDFGVVKEEISDDNAKLPCFNGRVVSWLVSA", "abundance fitness": "-0.965 ± 0.19"},
      {"variant": "GETKIIYHLDGQETPYLVKLPLPAHRVTLADFKGVLQRPSYKFFFKSMDDDFGVVKEEISDDNAKLPCFNGRVVSWLVSA", "abundance fitness": "-0.022 ± 0.098"},
      {"variant": "GETKIIYHLDGQETPYLVKLPLPAWRVTLADFKGVLQRPSYKFFFKSMDDDFGVVKEEISDDNAKLPCFNGRVVSWLVSA", "abundance fitness": "-0.457 ± 0.095"},
      {"variant": "GETKIIYHLDGQETPYLVKLPLPAQRVTLADFKGVLQRPSYKFFFKSMDDDFGVVKEEISDDNAKLPCFNGRVVSWLVSA", "abundance fitness": "-0.389 ± 0.1"},
      {"variant": "GETKIIYHLDGQETPYLVKLPLPAYRVTLADFKGVLQRPSYKFFFKSMDDDFGVVKEEISDDNAKLPCFNGRVVSWLVSA", "abundance fitness": "-0.501 ± 0.14"},
      {"variant": "GETKIIYHLDGQETPYLVKLPLPAVRVTLADFKGVLQRPSYKFFFKSMDDDFGVVKEEISDDNAKLPCFNGRVVSWLVSA", "abundance fitness": "-0.807 ± 0.12"},
      {"variant": "GETKIIYHLDGQETPYLVKLPLPATRVTLADFKGVLQRPSYKFFFKSMDDDFGVVKEEISDDNAKLPCFNGRVVSWLVSA", "abundance fitness": "-0.356 ± 0.12"},
      {"variant": "GETKIIYHLDGQETPYLVKLPLPANRVTLADFKGVLQRPSYKFFFKSMDDDFGVVKEEISDDNAKLPCFNGRVVSWLVSA", "abundance fitness": "-0.006 ± 0.095"},
      {"variant": "GETKIIYHLDGQETPYLVKLPLPALRVTLADFKGVLQRPSYKFFFKSMDDDFGVVKEEISDDNAKLPCFNGRVVSWLVSA", "abundance fitness": "-0.825 ± 0.12"},
      {"variant": "GETKIIYHLDGQETPYLVKLPLPAERCTLADFKGVLQRPSYKFFFKSMDDDFGVVKEEISDDNAKLPCFNGRVVSWLVSA", "abundance fitness": "-0.119 ± 0.079"},
      {"variant": "GETKIIYHLDGQETPYLVKLPLPAERDTLADFKGVLQRPSYKFFFKSMDDDFGVVKEEISDDNAKLPCFNGRVVSWLVSA", "abundance fitness": "-0.987 ± 0.24"},
      {"variant": "GETKIIYHLDGQETPYLVKLPLPAERETLADFKGVLQRPSYKFFFKSMDDDFGVVKEEISDDNAKLPCFNGRVVSWLVSA", "abundance fitness": "-0.624 ± 0.099"},
      {"variant": "GETKIIYHLDGQETPYLVKLPLPAERATLADFKGVLQRPSYKFFFKSMDDDFGVVKEEISDDNAKLPCFNGRVVSWLVSA", "abundance fitness": "-0.478 ± 0.079"},
      {"variant": "GETKIIYHLDGQETPYLVKLPLPAETVTLADFKGVLQRPSYKFFFKSMDDDFGVVKEEISDDNAKLPCFNGRVVSWLVSA", "abundance fitness": "-0.188 ± 0.079"},
      {"variant": "GETKIIYHLDGQETPYLVKLPLPAEVVTLADFKGVLQRPSYKFFFKSMDDDFGVVKEEISDDNAKLPCFNGRVVSWLVSA", "abundance fitness": "-0.08 ± 0.057"},
      {"variant": "GETKIIYHLDGQETPYLVKLPLPAECVTLADFKGVLQRPSYKFFFKSMDDDFGVVKEEISDDNAKLPCFNGRVVSWLVSA", "abundance fitness": "-0.102 ± 0.09"},
      {"variant": "GETKIIYHLDGQETPYLVKLPLPAESVTLADFKGVLQRPSYKFFFKSMDDDFGVVKEEISDDNAKLPCFNGRVVSWLVSA", "abundance fitness": "-0.068 ± 0.055"},
      {"variant": "GETKIIYHLDGQETPYLVKLPLPAELVTLADFKGVLQRPSYKFFFKSMDDDFGVVKEEISDDNAKLPCFNGRVVSWLVSA", "abundance fitness": "-0.081 ± 0.05"},
      {"variant": "GETKIIYHLDGQETPYLVKLPLPAEIVTLADFKGVLQRPSYKFFFKSMDDDFGVVKEEISDDNAKLPCFNGRVVSWLVSA", "abundance fitness": "-0.34 ± 0.14"},
      {"variant": "GETKIIYHLDGQETPYLVKLPLPAEPVTLADFKGVLQRPSYKFFFKSMDDDFGVVKEEISDDNAKLPCFNGRVVSWLVSA", "abundance fitness": "-0.675 ± 0.11"},
      {"variant": "GETKIIYHLDGQETPYLVKLPLPAEDVTLADFKGVLQRPSYKFFFKSMDDDFGVVKEEISDDNAKLPCFNGRVVSWLVSA", "abundance fitness": "-0.027 ± 0.091"},
      {"variant": "GETKIIYHLDGQETPYLVKLPLPAEYVTLADFKGVLQRPSYKFFFKSMDDDFGVVKEEISDDNAKLPCFNGRVVSWLVSA", "abundance fitness": "-0.414 ± 0.13"},
      {"variant": "GETKIIYHLDGQETPYLVKLPLPAEWVTLADFKGVLQRPSYKFFFKSMDDDFGVVKEEISDDNAKLPCFNGRVVSWLVSA", "abundance fitness": "-0.78 ± 0.11"},
      {"variant": "GETKIIYHLDGQETPYLVKLPLPAEEVTLADFKGVLQRPSYKFFFKSMDDDFGVVKEEISDDNAKLPCFNGRVVSWLVSA", "abundance fitness": "0.086 ± 0.054"},
      {"variant": "GETKIIYHLDGQETPYLVKLPLPAEKVTLADFKGVLQRPSYKFFFKSMDDDFGVVKEEISDDNAKLPCFNGRVVSWLVSA", "abundance fitness": "0.039 ± 0.066"},
      {"variant": "GETKIIYHLDGQETPYLVKLPLPAEHVTLADFKGVLQRPSYKFFFKSMDDDFGVVKEEISDDNAKLPCFNGRVVSWLVSA", "abundance fitness": "-0.182 ± 0.12"},
      {"variant": "GETKIIYHLDGQETPYLVKLPLPAEMVTLADFKGVLQRPSYKFFFKSMDDDFGVVKEEISDDNAKLPCFNGRVVSWLVSA", "abundance fitness": "-0.276 ± 0.088"},
      {"variant": "GETKIIYHLDGQETPYLVKLPLPAEGVTLADFKGVLQRPSYKFFFKSMDDDFGVVKEEISDDNAKLPCFNGRVVSWLVSA", "abundance fitness": "-0.441 ± 0.057"},
      {"variant": "GETKIIYHLDGQETPYLVKLPLPAEAVTLADFKGVLQRPSYKFFFKSMDDDFGVVKEEISDDNAKLPCFNGRVVSWLVSA", "abundance fitness": "0.027 ± 0.053"},
      {"variant": "GETKIIYHLDGQETPYLVKLPLPAEQVTLADFKGVLQRPSYKFFFKSMDDDFGVVKEEISDDNAKLPCFNGRVVSWLVSA", "abundance fitness": "0.123 ± 0.056"}
    ]}
  ]
}
